In patent US20240261333A1 (published 2024):

Experiments:
Assay in all cases: co-IP with anti-FLAG, C-FLAG B3GNT2, mass spectrometry
CLTC = target: T1, CLTC (human, UniProt Q00610 2-1675, limits assumed)
T1 construct: also called NP_001275582.1 (+2)

PUF60 = target: T2, PUF60 (human, UniProt Q9UHX1 1-559, limits assumed)
T2 construct: also called NP_016868724.1
T2 sequence (looked up): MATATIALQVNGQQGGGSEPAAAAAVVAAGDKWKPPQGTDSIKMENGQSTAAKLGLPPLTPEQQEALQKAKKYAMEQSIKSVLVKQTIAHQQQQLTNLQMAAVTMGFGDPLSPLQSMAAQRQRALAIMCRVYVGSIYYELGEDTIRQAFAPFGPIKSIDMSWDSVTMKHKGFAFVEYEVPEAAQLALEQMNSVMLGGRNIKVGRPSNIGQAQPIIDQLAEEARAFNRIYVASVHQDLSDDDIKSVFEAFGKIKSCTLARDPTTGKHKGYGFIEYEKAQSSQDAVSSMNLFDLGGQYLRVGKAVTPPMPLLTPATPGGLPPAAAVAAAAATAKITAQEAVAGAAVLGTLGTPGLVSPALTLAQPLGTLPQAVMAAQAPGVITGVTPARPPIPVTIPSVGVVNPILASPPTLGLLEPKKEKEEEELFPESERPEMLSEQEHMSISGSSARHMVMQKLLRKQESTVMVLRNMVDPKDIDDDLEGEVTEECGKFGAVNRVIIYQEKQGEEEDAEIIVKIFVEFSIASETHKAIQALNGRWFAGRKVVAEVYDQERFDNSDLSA

RPS20 = RPS20 (human, UniProt P60866 2-119)
JUP = target: T3, JUP (human, UniProt P14923 1-745)
T3 construct: also called NP_001339702.1
T3 sequence (looked up): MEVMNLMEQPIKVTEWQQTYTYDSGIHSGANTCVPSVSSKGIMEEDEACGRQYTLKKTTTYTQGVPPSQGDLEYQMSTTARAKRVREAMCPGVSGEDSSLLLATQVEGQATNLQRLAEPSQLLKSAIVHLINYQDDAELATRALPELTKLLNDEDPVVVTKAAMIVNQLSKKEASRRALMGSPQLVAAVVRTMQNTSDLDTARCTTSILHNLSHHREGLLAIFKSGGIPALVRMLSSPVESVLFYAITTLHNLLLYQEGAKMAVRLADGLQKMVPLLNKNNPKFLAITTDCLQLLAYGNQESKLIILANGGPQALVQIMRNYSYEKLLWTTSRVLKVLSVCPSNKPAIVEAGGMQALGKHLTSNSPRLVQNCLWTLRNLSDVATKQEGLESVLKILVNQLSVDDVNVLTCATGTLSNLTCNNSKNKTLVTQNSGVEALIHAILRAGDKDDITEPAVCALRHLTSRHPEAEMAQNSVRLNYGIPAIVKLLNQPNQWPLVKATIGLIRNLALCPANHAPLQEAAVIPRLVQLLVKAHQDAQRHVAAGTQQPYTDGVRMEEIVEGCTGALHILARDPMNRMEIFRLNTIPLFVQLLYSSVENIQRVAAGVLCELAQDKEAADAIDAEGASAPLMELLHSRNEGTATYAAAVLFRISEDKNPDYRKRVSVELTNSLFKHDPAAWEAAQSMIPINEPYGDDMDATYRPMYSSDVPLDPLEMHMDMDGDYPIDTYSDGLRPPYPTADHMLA

PSMA3 = target: T4, PSMA3 (human, UniProt P25788 2-255)
T4 construct: also called NP_002779.1 (+1)
T4 sequence (looked up): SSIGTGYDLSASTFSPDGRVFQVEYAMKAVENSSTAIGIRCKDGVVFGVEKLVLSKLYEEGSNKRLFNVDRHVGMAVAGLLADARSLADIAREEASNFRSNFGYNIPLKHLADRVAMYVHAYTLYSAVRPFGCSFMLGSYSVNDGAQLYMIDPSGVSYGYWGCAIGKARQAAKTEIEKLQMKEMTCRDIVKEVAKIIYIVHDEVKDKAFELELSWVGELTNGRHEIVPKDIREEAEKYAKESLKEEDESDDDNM

T1 sequence (Q00610 2-1675 limits assumed): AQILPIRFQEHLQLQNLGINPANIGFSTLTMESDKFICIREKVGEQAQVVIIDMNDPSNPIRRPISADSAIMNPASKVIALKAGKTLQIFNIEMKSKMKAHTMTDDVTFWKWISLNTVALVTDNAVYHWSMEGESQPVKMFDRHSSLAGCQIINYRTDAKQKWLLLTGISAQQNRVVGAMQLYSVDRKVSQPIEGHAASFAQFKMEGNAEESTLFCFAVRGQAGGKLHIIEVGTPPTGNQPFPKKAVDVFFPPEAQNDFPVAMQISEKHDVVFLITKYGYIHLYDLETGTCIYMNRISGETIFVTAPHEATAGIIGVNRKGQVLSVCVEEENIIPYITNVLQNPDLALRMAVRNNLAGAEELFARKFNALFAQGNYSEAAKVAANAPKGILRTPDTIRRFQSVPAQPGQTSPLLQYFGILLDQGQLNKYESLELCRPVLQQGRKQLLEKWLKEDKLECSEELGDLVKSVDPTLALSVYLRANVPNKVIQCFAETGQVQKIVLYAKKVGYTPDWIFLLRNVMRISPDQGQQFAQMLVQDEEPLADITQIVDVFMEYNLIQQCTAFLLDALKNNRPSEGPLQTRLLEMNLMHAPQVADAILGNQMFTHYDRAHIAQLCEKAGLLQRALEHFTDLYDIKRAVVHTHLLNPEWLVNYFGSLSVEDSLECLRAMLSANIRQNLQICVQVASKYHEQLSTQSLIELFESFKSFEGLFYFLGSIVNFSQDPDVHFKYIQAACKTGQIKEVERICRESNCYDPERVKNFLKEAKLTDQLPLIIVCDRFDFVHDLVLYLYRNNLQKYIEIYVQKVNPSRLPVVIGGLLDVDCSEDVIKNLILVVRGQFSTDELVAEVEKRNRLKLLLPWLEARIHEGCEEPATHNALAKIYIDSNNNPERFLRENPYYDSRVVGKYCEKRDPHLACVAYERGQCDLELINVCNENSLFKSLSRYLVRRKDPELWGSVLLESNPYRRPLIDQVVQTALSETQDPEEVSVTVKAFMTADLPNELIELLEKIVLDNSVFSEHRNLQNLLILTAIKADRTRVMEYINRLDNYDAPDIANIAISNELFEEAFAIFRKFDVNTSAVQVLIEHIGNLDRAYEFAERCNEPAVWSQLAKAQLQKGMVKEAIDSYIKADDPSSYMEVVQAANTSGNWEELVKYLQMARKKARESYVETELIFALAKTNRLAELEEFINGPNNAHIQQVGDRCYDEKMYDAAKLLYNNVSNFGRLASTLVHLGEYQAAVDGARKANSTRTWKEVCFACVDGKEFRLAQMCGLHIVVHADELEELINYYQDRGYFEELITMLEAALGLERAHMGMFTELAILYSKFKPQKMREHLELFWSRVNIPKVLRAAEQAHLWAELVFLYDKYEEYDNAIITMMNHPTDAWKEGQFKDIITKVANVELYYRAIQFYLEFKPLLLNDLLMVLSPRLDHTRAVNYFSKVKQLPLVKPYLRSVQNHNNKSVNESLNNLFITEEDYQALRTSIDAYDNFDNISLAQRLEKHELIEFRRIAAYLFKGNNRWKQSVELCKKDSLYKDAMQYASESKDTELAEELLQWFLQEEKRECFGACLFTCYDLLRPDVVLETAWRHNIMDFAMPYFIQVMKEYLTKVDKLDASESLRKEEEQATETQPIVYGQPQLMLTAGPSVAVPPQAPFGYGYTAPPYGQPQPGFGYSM

B1: C-terminal FLAG tagged B3GNT2 (enzyme, human, UniProt Q9NY97 1-397, looked up)
chain: MSVGRRRIKLLGILMMANVFIYFIMEVSKSSSQEKNGKGEVIIPKEKFWKISTPPEAYWNREQEKLNRQYNPILSMLTNQTGEAGRLSNISHLNYCEPDLRVTSVVTGFNNLPDRFKDFLLYLRCRNYSLLIDQPDKCAKKPFLLLAIKSLTPHFARRQAIRESWGQESNAGNQTVVRVFLLGQTPPEDNHPDLSDMLKFESEKHQDILMWNYRDTFFNLSLKEVLFLRWVSTSCPDTEFVFKGDDDVFVNTHHILNYLNSLSKTKAKDLFIGDVIHNAGPHRDKKLKYYIPEVVYSGLYPPYAGGGGFLYSGHLALRLYHITDQVHLYPIDDVYTGMCLQKLGLVPEKHKGFRTFDIEEKNKNNICSYVDLMLVHSRKPQEMIDIWSQLQSAHLKC
notes: FLAG-tagged ORF overexpressed in A375 cells; pulled down from the lysate with mouse anti-FLAG; also called C-FLAG B3GNT2; C-term flag; not shown: C-terminal FLAG tag
Question: B1 was tested. Which “co-IP/MS count, C-term flag” value (CLTC) did it give?
Answer: The value was 7.

Question: And the “co-IP/MS count, C-term flag” value (PUF60)?
Answer: The value was 6.

Question: What about the “co-IP/MS count, C-term flag” value (RPS20) of the same binder?
Answer: Its value is 7.

Question: What about the “co-IP/MS count, C-term flag” value (JUP) of the same binder?
Answer: Its value is 43.

Question: What about the “co-IP/MS count, C-term flag” value (PSMA3) of the same binder?
Answer: The value was 0.
